Measurements as given in patent US20120316071A1 (published 2012).
One block for each binder: values may come before it.

Tests used:
[1] = target: T1, Recombinant Human DLL4 (R&D Systems Cat#1506-D4/CF) (human, UniProt Q9NR61 27-524); assay: SPR
T1 construct: bought recombinant protein; also called rHuman DLL4; delta-like protein 4

[2] = target: T1, Recombinant Human DLL4 (R&D Systems …); assay: affinity quoted with the Multispot ECL titration; method of the number not stated there
[3] = target: T2, Recombinant Human DLL4 (R&D Systems Cat#1506-D4/CF) (human, UniProt Q9NR61 27-524); assay: ECL multispot binding assay (MSD), antigen spotted on plate, 10 nM Fab
T2 construct: Bought recombinant protein; also called delta-like protein 4; rHuman DLL4

[4] = target: T3, rHuman ErbB2/Fc Chimera, CF (R&D Systems Cat#1129-ER) (human, UniProt P04626 23-652); assay: as above
T3 construct: Bought recombinant protein; also called human epidermal growth factor 2 receptor; Fc part of the bought chimera not given

[5] = target: T4, rHuman EGF R/Fc Chimera, CF (R&D Systems Cat#344-ER) (human, UniProt P00533 25-645); assay: as above
T4 construct: Bought recombinant protein; also called epidermal growth factor receptor; Fc part of the bought chimera not given

[6] = target: T5, rHuman HGF R/c-MET/Fc Chimera, CF (R&D Systems Cat#358-MT/CF) (human, UniProt P08581 25-932); assay: as above
T5 construct: Bought recombinant protein; also called HGF R/Fc; hepatocyte growth factor receptor; Fc part of the bought chimera not given

[7] = target: T6, rHuman Notch-1/Fc Chimera, CF (R&D Systems Cat#3647-TK) (human, UniProt P46531 19-526); assay: as above
T6 construct: Bought recombinant protein; Fc part of the bought chimera not given

[8] = target: T7, rHuman CD44/Fc Chimera, CF (R&D Systems Cat#3660-CD) (human, UniProt P16070 21-220); assay: as above
T7 construct: Bought recombinant protein; Fc part of the bought chimera not given

[9] = target: T8, rHuman IGF-1 sR, CF (R&D Systems Cat#391-GR) (human, UniProt P08069 31-932); assay: as above
T8 construct: also called insulin-like growth factor-1 soluble receptor

[10] = target: T9, rHuman P-Cadherin/Fc Chimera, CF (R&D Systems Cat#861-PC) (human, UniProt P22223 108-654); assay: as above
T9 construct: Bought recombinant protein; Fc part of the bought chimera not given

[11] = target: T10, rHuman Erythropoietin R/Fc Chimera, CF (R&D Systems Cat#963-ER) (human, UniProt P19235 25-250); assay: as above
T10 construct: Bought recombinant protein; also called EPO R; EPO R/Fc; Fc part of the bought chimera not given
T10 sequence (looked up): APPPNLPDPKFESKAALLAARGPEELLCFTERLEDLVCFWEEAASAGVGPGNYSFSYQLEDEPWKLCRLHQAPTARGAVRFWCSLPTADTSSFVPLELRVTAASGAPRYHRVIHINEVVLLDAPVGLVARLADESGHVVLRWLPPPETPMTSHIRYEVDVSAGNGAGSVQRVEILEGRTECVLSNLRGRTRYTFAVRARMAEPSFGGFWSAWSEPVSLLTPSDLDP

[12] = target: T11, Recombinant Human DLL4 (R&D Systems Cat#1506-D4/CF) (human, UniProt Q9NR61 27-524); assay: ECL Multispot (MSD), DLL4 spotted, 10 nM Fab
T11 construct: Bought recombinant protein; also called delta-like protein 4; rHuman DLL4

[13] = target: T11, Recombinant Human DLL4 (R&D Systems …); assay: ELISA, DLL4 coated, 100 nM Fab, absorbance at 450 nm minus noise
[14] = target: T12, rHuman HGF R/c-MET/Fc Chimera, CF (R&D Systems Cat#358-MT/CF) (human, UniProt P08581 25-932); assay: ECL Multispot (MSD), antigen spotted, Fab 0.50 (column head 'Fab [µM]'); blank 206
T12 construct: Bought Fc chimera; also called HGF R/Fc; hepatocyte growth factor receptor; Fc part of the bought chimera not given

[15] = target: T13, rHuman IGF-1 sR, CF (R&D Systems Cat#391-GR) (human, UniProt P08069 31-932); assay: as above
T13 construct: Bought soluble receptor; also called insulin-like growth factor-1 soluble receptor

[16] = target: T14, rHuman P-Cadherin/Fc Chimera, CF (R&D Systems Cat#861-PC) (human, UniProt P22223 108-654); assay: as above
T14 construct: Bought Fc chimera; Fc part of the bought chimera not given

[17] = target: T11, Recombinant Human DLL4 (R&D Systems …); assay: as above
[18] = target: T15, rHuman ErbB2/Fc Chimera, CF (R&D Systems Cat#1129-ER) (human, UniProt P04626 23-652); assay: as above
T15 construct: Bought Fc chimera; also called human epidermal growth factor 2 receptor; Fc part of the bought chimera not given

[19] = target: T12, rHuman HGF R/c-MET/Fc Chimera, CF (R&D …); assay: ECL Multispot (MSD), antigen spotted, Fab 5.00 (column head 'Fab [µM]'); blank 268
[20] = target: T13, rHuman IGF-1 sR, CF (R&D Systems …); assay: as above
[21] = target: T14, rHuman P-Cadherin/Fc Chimera, CF (R&D …); assay: as above
[22] = target: T11, Recombinant Human DLL4 (R&D Systems …); assay: as above
[23] = target: T15, rHuman ErbB2/Fc Chimera, CF (R&D …); assay: as above
[24] = target: T12, rHuman HGF R/c-MET/Fc Chimera, CF (R&D …); assay: ECL Multispot (MSD), antigen spotted, Fab 50.00 (column head 'Fab [µM]'); blank 223
[25] = target: T13, rHuman IGF-1 sR, CF (R&D Systems …); assay: as above
[26] = target: T14, rHuman P-Cadherin/Fc Chimera, CF (R&D …); assay: as above
[27] = target: T11, Recombinant Human DLL4 (R&D Systems …); assay: as above
[28] = target: T15, rHuman ErbB2/Fc Chimera, CF (R&D …); assay: as above
[29] = target: T12, rHuman HGF R/c-MET/Fc Chimera, CF (R&D …); assay: ECL Multispot (MSD), antigen spotted, Fab 500.00 (column head 'Fab [µM]'); blank 495
[30] = target: T13, rHuman IGF-1 sR, CF (R&D Systems …); assay: as above
[31] = target: T14, rHuman P-Cadherin/Fc Chimera, CF (R&D …); assay: as above
[32] = target: T11, Recombinant Human DLL4 (R&D Systems …); assay: as above
[33] = target: T15, rHuman ErbB2/Fc Chimera, CF (R&D …); assay: as above

fold affinity against the parent Fab [1]: 10 fold | apparent Kd (pooled screen) [2]: 70 nM
B1: Fab VH1-46_IGHD6-6*01_IGHJ1*01 S102A/S103P/S104F/H111F & L6_IGKJ1*01 (Fab, V domains shown)
VH: QVQLVQSGAEVKKPGASVKVSCKASGYTFTSYYMHWVRQAPGQGLEWMGIINPSGGSTSYAQKFQGRVTMTRDTSTSTVYMELSSLRSEDTAVYYCAREEYAPFSAEYFQFWGQGTLVTVSS
VL: not shown
notes: Fab; also called H:APFF & L:wt; APFF mutant

ECL signal [3]: 4500 | ECL signal [4]: 312 | ECL signal [5]: 358 | ECL signal [6]: 280 | ECL signal [7]: 333 | ECL signal [8]: 346 | ECL signal [9]: 273 | ECL signal [10]: 339 | ECL signal [11]: 382
B2: Fab VH1-46_IGHD6-6*01_IGHJ1*01 S102A/S103P/S104F/H111F S59A & L6_IGKJ1*01 (Fab, V domains shown)
VH: QVQLVQSGAEVKKPGASVKVSCKASGYTFTSYYMHWVRQAPGQGLEWMGIINPSGGSTAYAQKFQGRVTMTRDTSTSTVYMELSSLRSEDTAVYYCAREEYAPFSAEYFQFWGQGTLVTVSS
VL: not shown
notes: Tested as a Fab made in E. coli; also called APFF S59A

ECL Signal/Noise [12]: 202 | ELISA (Signal-Noise) [13]: 0.78 | ECL signal [14]: 215 | ECL signal [15]: 184 | ECL signal [16]: 201 | ECL signal [17]: 7540 | ECL signal [18]: 222 | ECL signal [19]: 258 | ECL signal [20]: 323 | ECL signal [21]: 280 | ECL signal [22]: 75800 | ECL signal [23]: 286 | ECL signal [24]: 380 | ECL signal [25]: 485 | ECL signal [26]: 453 | ECL signal [27]: 79300 | ECL signal [28]: 503 | ECL signal [29]: 723 | ECL signal [30]: 736 | ECL signal [31]: 785 | ECL signal [32]: 27200 | ECL signal [33]: 712
B3: Fab VH1-46_IGHD6-6*01_IGHJ1*01 S102A/S103P/S104F/H111F (APFF) & L6_IGKJ1*01 (Fab, V domains shown)
VH: QVQLVQSGAEVKKPGASVKVSCKASGYTFTSYYMHWVRQAPGQGLEWMGIINPSGGSTSYAQKFQGRVTMTRDTSTSTVYMELSSLRSEDTAVYYCAREEYAPFSAEYFQFWGQGTLVTVSS
VL: not shown
notes: Tested as Fab expressed in E. coli: heavy chain from plasmid A (CH1 with His6 and Flag tags), kappa light chain from plasmid C (CL kappa); also called H:APFF & L:wt
